Test results reported in patent US20240294983A1 (CALIFORNIA INSTITUTE OF TECHNOLOGY, published 2024).

B1: E-cadherin (receptor, human, UniProt P12830 155-882, looked up)
chain: DWVIPPISCPENEKGPFPKNLVQIKSNKDKEGKVFYSITGQGADTPPVGVFIIERETGWLKVTEPLDRERIATYTLFSHAVSSNGNAVEDPMEILITVTDQNDNKPEFTQEVFKGSVMEGALPGTSVMEVTATDADDDVNTYNAAIAYTILSQDPELPDKNMFTINRNTGVISVVTTGLDRESFPTYTLVVQAADLQGEGLSTTATAVITVTDTNDNPPIFNPTTYKGQVPENEANVVITTLKVTDADAPNTPAWEAVYTILNDDGGQFVVTTNPVNNDGILKTAKGLDFEAKQQYILHVAVTNVVPFEVSLTTSTATVTVDVLDVNEAPIFVPPEKRVEVSEDFGVGQEITSYTAQEPDTFMEQKITYRIWRDTANWLEINPDTGAISTRAELDREDFEHVKNSTYTALIIATDNGSPVATGTGTLLLILSDVNDNAPIPEPRTIFFCERNPKPQVINIIDADLPPNTSPFTAELTHGASANWTIQYNDPTQESIILKPKMALEVGDYKINLKLMDNQNKDQVTTLEVSVCDCEGAAGVCRKAQPVEAGLQIPAILGILGGILALLILILLLLLFLRRRAVVKEPLLPPEDDTRDNVYYYDEEGGGEEDQDFDLSQLHRGLDARPEVTRNDVAPTLMSVPRYLPRPANPDEIGNFIDENLKAADTDPTAPPYDSLLVFDYEGSGSEAASLSSLNSSESDKDQDYDYLNEWGNRFKKLADMYGGGEDD
notes: Endogenous membrane protein in fixed human cells or tissue, detected through an unnamed primary antibody and a fractional-initiator secondary antibody probe
B2: SC35 (protein, human, UniProt Q01130 2-221, looked up)
chain: SYGRPPPDVEGMTSLKVDNLTYRTSPDTLRRVFEKYGRVGDVYIPRDRYTKESRGFAFVRFHDKRDAEDAMDAMDGAVLDGRELRVQMARYGRPPDSHHSRRGPPPRRYGGGGYGRRSRSPRRRRRSRSRSRSRSRSRSRSRYSRSKSRSRTRSRSRSTSKSRSARRSKSKSSSVSRSRSRSRSRSRSRSPPPVSKRESKSRSRSKSPPKSPEEEGAVSS
B3: β-catenin (other, human, UniProt P35222 2-781, looked up)
chain: ATQADLMELDMAMEPDRKAAVSHWQQQSYLDSGIHSGATTTAPSLSGKGNPEEEDVDTSQVLYEWEQGFSQSFTQEQVADIDGQYAMTRAQRVRAAMFPETLDEGMQIPSTQFDAAHPTNVQRLAEPSQMLKHAVVNLINYQDDAELATRAIPELTKLLNDEDQVVVNKAAVMVHQLSKKEASRHAIMRSPQMVSAIVRTMQNTNDVETARCTAGTLHNLSHHREGLLAIFKSGGIPALVKMLGSPVDSVLFYAITTLHNLLLHQEGAKMAVRLAGGLQKMVALLNKTNVKFLAITTDCLQILAYGNQESKLIILASGGPQALVNIMRTYTYEKLLWTTSRVLKVLSVCSSNKPAIVEAGGMQALGLHLTDPSQRLVQNCLWTLRNLSDAATKQEGMEGLLGTLVQLLGSDDINVVTCAAGILSNLTCNNYKNKMMVCQVGGIEALVRTVLRAGDREDITEPAICALRHLTSRHQEAEMAQNAVRLHYGLPVVVKLLHPPSHWPLIKATVGLIRNLALCPANHAPLREQGAIPRLVQLLVRAHQDTQRRTSMGGTQQQFVEGVRMEEIVEGCTGALHILARDVHNRIVIRGLNTIPLFVQLLYSPIENIQRVAAGVLCELAQDKEAAEAIEAEGATAPLTELLHSRNEGVATYAAAVLFRMSEDKPQDYKKRLSVELTSSLFRTEPMAWNETADLGLDIGAQGEPLGYRQDDPSYRSFHSGGYGQDALGMDPMMEHEMGGHHPGADYPVDGLPDLGHAQDLMDGLPPGDSNQLAWFDTDL
notes: Endogenous protein in fixed human cells or tissue, detected through an unnamed primary antibody and a fractional-initiator secondary antibody probe

How the values were obtained:
β-catenin = target: B3; assay: HCR proximity imaging; A-431 cells positive sample, HeLa cells negative sample
Procedure: (§1) For each pair of sample types, signal-to-background was calculated using the positive sample type to estimate signal plus background and the negative sample type to estimate background.
(§2) While A-431 cells formed the β-catenin:E-cadherin complex at the cell membrane of intercellular junctions,⁶³ HeLa cells express N-cadherin rather than E-cadherin^{64,65} and therefore lacked the β-catenin:E-cadherin complex.

[1] = substrate: SON (human) (UniProt P18583); assay: HCR proximity imaging of the endogenous complex in fixed A-431 human cells; background from controls omitting the antibodies to one protein; SEM, N=3 cells
Sequence of SON (human) (P18583 2-2426 limits assumed): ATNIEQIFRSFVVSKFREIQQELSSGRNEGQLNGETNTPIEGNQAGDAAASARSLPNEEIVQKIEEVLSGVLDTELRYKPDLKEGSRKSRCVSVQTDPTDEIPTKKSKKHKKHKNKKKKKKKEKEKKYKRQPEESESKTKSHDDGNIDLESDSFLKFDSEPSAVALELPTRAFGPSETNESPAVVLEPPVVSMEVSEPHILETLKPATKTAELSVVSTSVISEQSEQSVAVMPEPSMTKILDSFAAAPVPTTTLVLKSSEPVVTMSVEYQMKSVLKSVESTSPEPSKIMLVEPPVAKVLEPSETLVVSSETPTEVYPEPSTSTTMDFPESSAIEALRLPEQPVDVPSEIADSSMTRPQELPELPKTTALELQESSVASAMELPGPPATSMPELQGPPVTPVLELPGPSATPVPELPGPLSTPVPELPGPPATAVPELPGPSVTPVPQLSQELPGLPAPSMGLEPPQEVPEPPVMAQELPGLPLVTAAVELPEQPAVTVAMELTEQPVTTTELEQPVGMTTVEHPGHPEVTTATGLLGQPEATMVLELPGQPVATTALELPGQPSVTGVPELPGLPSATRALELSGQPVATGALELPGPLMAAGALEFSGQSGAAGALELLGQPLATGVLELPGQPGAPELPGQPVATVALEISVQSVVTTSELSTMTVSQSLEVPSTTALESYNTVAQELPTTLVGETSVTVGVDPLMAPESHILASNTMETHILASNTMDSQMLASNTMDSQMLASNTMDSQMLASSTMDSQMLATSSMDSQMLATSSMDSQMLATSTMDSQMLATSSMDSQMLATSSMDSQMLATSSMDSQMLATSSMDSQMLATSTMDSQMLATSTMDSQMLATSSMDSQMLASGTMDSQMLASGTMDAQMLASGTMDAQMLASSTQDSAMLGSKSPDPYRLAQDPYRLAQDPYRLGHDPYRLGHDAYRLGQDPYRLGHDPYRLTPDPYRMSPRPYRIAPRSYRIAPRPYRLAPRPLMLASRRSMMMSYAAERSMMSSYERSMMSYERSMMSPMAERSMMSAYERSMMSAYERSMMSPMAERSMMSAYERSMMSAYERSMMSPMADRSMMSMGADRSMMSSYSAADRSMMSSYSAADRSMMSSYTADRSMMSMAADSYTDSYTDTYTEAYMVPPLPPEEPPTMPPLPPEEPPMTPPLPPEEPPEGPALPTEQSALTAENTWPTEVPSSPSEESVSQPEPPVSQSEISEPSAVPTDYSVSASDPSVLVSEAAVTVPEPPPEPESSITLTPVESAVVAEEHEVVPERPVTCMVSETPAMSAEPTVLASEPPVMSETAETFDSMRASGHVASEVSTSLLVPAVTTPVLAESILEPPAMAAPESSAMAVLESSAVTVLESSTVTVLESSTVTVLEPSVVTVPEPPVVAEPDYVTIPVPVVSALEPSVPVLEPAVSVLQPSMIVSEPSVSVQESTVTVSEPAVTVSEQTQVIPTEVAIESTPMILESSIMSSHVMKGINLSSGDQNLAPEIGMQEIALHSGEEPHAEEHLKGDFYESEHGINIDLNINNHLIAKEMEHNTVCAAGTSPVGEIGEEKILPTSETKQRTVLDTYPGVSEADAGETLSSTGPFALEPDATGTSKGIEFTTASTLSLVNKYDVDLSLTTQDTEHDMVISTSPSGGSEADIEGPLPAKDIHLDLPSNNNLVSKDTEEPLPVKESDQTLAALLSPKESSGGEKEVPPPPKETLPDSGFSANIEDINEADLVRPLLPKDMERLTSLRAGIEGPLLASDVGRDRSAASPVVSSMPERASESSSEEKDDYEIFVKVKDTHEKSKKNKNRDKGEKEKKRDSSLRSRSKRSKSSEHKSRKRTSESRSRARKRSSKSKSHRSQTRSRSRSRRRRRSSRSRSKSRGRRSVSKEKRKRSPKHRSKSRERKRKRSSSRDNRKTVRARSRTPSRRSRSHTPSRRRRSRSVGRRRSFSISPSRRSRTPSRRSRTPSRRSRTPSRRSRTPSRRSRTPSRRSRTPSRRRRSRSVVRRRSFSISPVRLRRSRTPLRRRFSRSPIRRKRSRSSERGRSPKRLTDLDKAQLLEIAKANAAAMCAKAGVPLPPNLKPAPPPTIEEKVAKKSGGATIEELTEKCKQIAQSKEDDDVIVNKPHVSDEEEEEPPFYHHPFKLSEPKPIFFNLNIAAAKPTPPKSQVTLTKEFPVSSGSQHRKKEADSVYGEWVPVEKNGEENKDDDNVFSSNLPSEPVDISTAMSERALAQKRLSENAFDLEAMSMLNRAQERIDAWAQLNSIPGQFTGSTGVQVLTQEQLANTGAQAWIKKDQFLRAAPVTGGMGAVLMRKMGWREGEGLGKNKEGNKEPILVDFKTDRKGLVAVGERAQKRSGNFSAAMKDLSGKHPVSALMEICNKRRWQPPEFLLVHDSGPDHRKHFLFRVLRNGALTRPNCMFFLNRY

E-cadherin [2] = target: B1; assay: HCR proximity imaging; A-431 cells (positive) against HeLa cells (negative, lacking E-cadherin); mean±SEM, N=3 wells
Procedure: as §1, §2

E-cadherin [3] = target: B1; assay: HCR proximity imaging; normal against invasive lobular carcinoma FFPE human breast tissue sections; mean±SEM, N=3 sections
Procedure: as §1
The β-catenin:E-cadherin target complex was detected in highly autofluorescent FFPE human breast tissue sections. The β-catenin:E-cadherin complex is robustly formed in normal breast epithelial cells, but the expression of and interaction between the β-catenin and E-cadherin proteins is interrupted when breast epithelial cells become cancerous in the invasive lobular carcinoma disease process.^{66,67} Paired normal and invasive lobular carcinoma FFPE breast tissue sections from the same patient were evaluated for the β-catenin:E-cadherin target complex, yielding strong HCR signal in normal breast tissue (FIG. 45C; positive sample) and no visible staining in cancerous tissue (FIG. 45D; negative sample), with a signal-to-background ratio of 30±3 between the two tissue types (mean±SEM for representative regions of N=3 replicate sections).

E-cadherin [4] = target: B1; assay: HCR proximity imaging of the endogenous complex in fixed A-431 human cells; background from controls omitting the antibodies to one protein; SEM, N=3 cells
Procedure: For each protein:protein complex, background was assessed by technical controls in which the antibodies corresponding to one protein of the complex were omitted, simulating a scenario in which the two proteins are not in a complex with one another. For each of three protein:protein target complexes, a high signal-to-background ratio was obtained: 170±10 (SC35:SON), 50±10 (β-catenin:E-cadherin), and 140±10 (α-tubulin:β-tubulin) (standard error of the mean, representative regions within N=3 cells).

E-cadherin [5] = target: B1; assay: HCR proximity imaging in FFPE human breast tissue section; background from a region with low/no complex; SEM, N=3 regions
Procedure: FIG. 16 depicts imaging the β-catenin:E-cadherin target complex in a highly autofluorescent FFPE human breast tissue section (5-μm thickness) using a pair of fractional-initiator probes, a proximity probe, and an HCR amplifier. Background was assessed by fluorescence in a region of the sample in which there is low/no abundance of the protein:protein complex. A high signal-to-background ratio was obtained (70±20) (standard error of the mean, N=3 representative regions).

Binder: B1
- binding result (β-catenin): binds

Binder: B2
- signal-to-background ratio [1]: 170

Binder: B3
- signal-to-background ratio (E-cadherin [2]): 26
- signal-to-background ratio (E-cadherin [3]): 30
- signal-to-background ratio (E-cadherin [4]): 50
- signal-to-background ratio (E-cadherin [5]): 70
